Experimental data published in the Human Domainome abundance scans (Beltran et al. 2025).
± gives the uncertainty stated by the source.

B1: Far upstream element-binding protein 3, residues 75 to 150; numbered along this chain, Q96I24 (parent)
chain: RTVITEEFKVPDKMVGFIIGRGGEQISRIQAESGCKIQIASESSGIPERPCVLTGTPESIEQAKRLLGQIVDRCRN

Variants of: B1
Assay: abundance fitness (aPCA) (normalised: wild type 0, dead -1); higher = more abundant; growth selection in yeast, the domain comes from the species named
Conditions: Homo sapiens

Variant | abundance fitness
S27D | -0.084 ± 0.075
S27P | -0.232 ± 0.05
S27I | -0.187 ± 0.074
S27G | 0.004 ± 0.031
S27E | -0.014 ± 0.043
C35Y | -0.578 ± 0.12
C35H | -0.585 ± 0.12
C35L | -0.763 ± 0.046
C35V | -0.157 ± 0.032
C35Q | -0.588 ± 0.074
C35K | -0.608 ± 0.054
C35S | -0.276 ± 0.039
C35N | -0.539 ± 0.11
C35F | -1.06 ± 0.12
C35A | -0.025 ± 0.034
C35E | -0.539 ± 0.044
C35G | -0.663 ± 0.031
C35I | -0.397 ± 0.082
C35R | -0.732 ± 0.035
C35W | -0.895 ± 0.054
C35P | -0.758 ± 0.07
E24N | 0.052 ± 0.05
E24K | 0.063 ± 0.042
E24R | 0.113 ± 0.027

Variant | abundance fitness
E24V | -0.03 ± 0.03
E24W | 0.222 ± 0.032
E24Y | 0.062 ± 0.053
E24S | 0.016 ± 0.033
E24T | 0.008 ± 0.038
E24M | -0.019 ± 0.039
E24G | -0.045 ± 0.028
E24Q | 0.055 ± 0.041
E24P | -0.271 ± 0.045
E24H | 0.059 ± 0.068
E24I | -0.035 ± 0.055
E24L | -0.112 ± 0.031
K36C | -0.116 ± 0.049
K36W | -0.18 ± 0.037
K36D | 0.001 ± 0.054
K36A | -0.065 ± 0.034
K36T | -0.051 ± 0.04
K36R | -0.027 ± 0.029
K36M | -0.066 ± 0.042
K36Y | -0.14 ± 0.059
K36P | -0.811 ± 0.063
K36L | -0.057 ± 0.035
K36Q | -0.065 ± 0.045
K36G | -0.112 ± 0.029

Variant | abundance fitness
K36F | -0.234 ± 0.07
K36V | -0.101 ± 0.032
K36E | -0.02 ± 0.039
K36I | -0.112 ± 0.061
K36S | -0.034 ± 0.035
E32H | -0.2 ± 0.064
E32A | -0.074 ± 0.034
E32R | -0.039 ± 0.026
E32I | -0.04 ± 0.061
E32W | -0.131 ± 0.031
E32Y | -0.049 ± 0.059
E32K | -0.054 ± 0.042
E32M | -0.045 ± 0.038
E32Q | 0.016 ± 0.04
E32G | -0.237 ± 0.026
E32V | -0.073 ± 0.027
E32C | -0.128 ± 0.042
E32T | -0.055 ± 0.044
E32N | -0.173 ± 0.079
E32L | -0.044 ± 0.03
E32S | -0.093 ± 0.032
E32P | -0.95 ± 0.069
E32D | -0.005 ± 0.047
S43A | -0.064 ± 0.039

Variant | abundance fitness
S43M | -0.079 ± 0.047
S43D | -0.036 ± 0.056
S43I | 0.028 ± 0.069
S43K | -0.11 ± 0.056
S43L | -0.102 ± 0.035
S43C | 0.017 ± 0.053
S43F | -0.092 ± 0.1
S43G | -0.041 ± 0.027
S43E | -0.049 ± 0.039
R28S | -0.085 ± 0.035
R28E | -0.079 ± 0.034
R28W | -0.118 ± 0.034
R28F | -0.218 ± 0.067
R28T | -0.064 ± 0.039
R28M | -0.104 ± 0.046
R28C | -0.172 ± 0.047
R28L | -0.143 ± 0.033
R28N | -0.125 ± 0.069
R28D | -0.077 ± 0.053
R28P | -0.617 ± 0.052
R28A | -0.024 ± 0.029
R28V | -0.202 ± 0.028
R28Q | -0.02 ± 0.04
R28H | -0.108 ± 0.064

Variant | abundance fitness
R28Y | -0.173 ± 0.061
I39S | -0.485 ± 0.037
I39A | -0.437 ± 0.036
I39G | -0.48 ± 0.027
I39T | -0.321 ± 0.039
I39Y | -0.327 ± 0.06
I39W | -0.159 ± 0.031
I39R | -0.526 ± 0.028
I39Q | -0.399 ± 0.041
I39H | -0.44 ± 0.066
I39L | -0.107 ± 0.031
I39E | -0.502 ± 0.037
I39P | -0.394 ± 0.044
I39K | -0.614 ± 0.046
I39F | -0.114 ± 0.052
I39C | -0.152 ± 0.044
I39M | -0.067 ± 0.035
I39V | -0.027 ± 0.029
I26V | -0.024 ± 0.031
I26G | -0.533 ± 0.029
I26T | -0.262 ± 0.041
I26Y | -0.288 ± 0.062
I26H | -0.144 ± 0.052
I26D | -0.518 ± 0.052

Variant | abundance fitness
I26A | -0.192 ± 0.034
I26F | -0.173 ± 0.06
I26S | -0.436 ± 0.035
I26R | -0.251 ± 0.027
I26K | -0.232 ± 0.041
I26E | -0.436 ± 0.037
I26W | -0.2 ± 0.032
I26L | -0.019 ± 0.032
I26M | -0.052 ± 0.042
I26C | -0.21 ± 0.047
I26N | -0.538 ± 0.08
I26Q | -0.193 ± 0.039
I26P | -0.628 ± 0.045
G34Q | -0.06 ± 0.049
G34A | -0.124 ± 0.031
G34C | -0.268 ± 0.054
G34Y | -0.361 ± 0.074
G34P | -0.775 ± 0.067
G34L | -0.264 ± 0.036
G34F | -0.292 ± 0.07
G34E | -0.089 ± 0.033
G34K | -0.027 ± 0.047
G34W | -0.665 ± 0.048
G34R | -0.079 ± 0.03

Variant | abundance fitness
G34D | -0.073 ± 0.047
G34H | -0.155 ± 0.064
G34I | -0.736 ± 0.2
G34S | -0.079 ± 0.043
G34N | -0.046 ± 0.11
G34T | -0.268 ± 0.044
E42H | 0.01 ± 0.084
E42V | -0.041 ± 0.032
E42I | -0.139 ± 0.077
E42T | -0.04 ± 0.041
E42K | -0.047 ± 0.052
E42N | -0.043 ± 0.065
E42P | -0.037 ± 0.047
E42R | 0.005 ± 0.029
E42Q | -0.035 ± 0.042
E42D | -0.023 ± 0.048
E42L | -0.086 ± 0.034
E42W | -0.069 ± 0.035
E42Y | -0.086 ± 0.057
E42F | -0.093 ± 0.063
E42G | -0.013 ± 0.028
E42A | -0.039 ± 0.037
E42S | -0.037 ± 0.037
